According to patent US20240043504A1 (published 2024):
Changes are numbered by the printed parent chain.

B1: mAb10969 (antibody, V domains shown)
VH: QVQLVESGGGVVQPGRSLRLSCAASGFTFSSYAMHWVRQAPGKGLEWVAVISYDGSNKYYADSVKGRFTISRDNSKNTLYLQMNSLRAEDTAVYYCARDGRTITMVRGVIDDAFDIWGQGTMVTVSS
VL: not shown
B2: mAb10964 (antibody, V domains shown)
VH: QVQLQESGPGLVKPSETLSLTCTVSGGSINNYYWIWIRQPPGKGLEWIGYIYHSGSTNYNPSLKSRVTISVDTSKNQFSLKVSSVTAADTAVYYCANMVRGVYEDDYWGQGTLVTVSS
VL: DIQMTQSPSSLSASVGDRVTITCRASQSISNYLNWYQQKPGKAPKLLIFAASSLRSGVPSRFSGSGSGTDFTLTISSLHPEDFATYYCQQNYNTPLTFGPGTKVDIKR
B3: mAb10932 (antibody, V domains shown)
VH: EVQLVESGGGLVQSGGSLRLSCAASGLTVSSNYMSWVRQAPGKGLEWVSVIYSGGSTFYSDSVKGRFTISRHNSKNTLYLQMNSLRAEDTAVYYCARARGDAFDIWGQGTMVTVSS
VL: not shown
B4: mAb10984 (antibody, V domains shown)
VH: EVQLVESGGGLVQPGGSLRLSCAASGLTVNRNYMSWVRQAPGKGLEWVSLIYSGGSTYYADSVKGRFTISRDNSKNTLYLQMNSLRLEDTAVYYCARGELGIPYGMDVWGQGTTVTVSS
VL: QSVLTQPPSVSAAPGQKVTISCSGSSSNIGNNYVSWYQQLPGTAPKLLIYDNNKRPSGIPDRFSGSKSGTSATLGITGLQTGDEADYYCGTWDSSLSAGVFGGGTKLTVLG
B5: mAb10921 (antibody, V domains shown)
VH: EVQLVESGGGLVQPGGSLRLSCAASGITVSSNYMSWVRQAPGKGLEWVSVIYSGGSTFYADSVKGRFTISRHNSKNTLYLQMNSLRAEDTAVYYCARERNFDAFDIWGQGTMVTVSS
VL: DIQMTQSPSSVSASVGDRVTITCRASQGISSWLAWYQQKPGKAPKLLIYAASSLQSGVPSRFSGSGSGTDFTLTISSLQPEDFATYYCQQANSFPLFTFGPGTKVDIKR
B6: mAb10957 (antibody, V domains shown)
VH: EVQLVESGGGLVQPGGSLRLSCAASGVTVSSNYMSWVRQAPGKGLEWVSVIYSGGSTFYADSVKGRFTISRDNSKNTLFLQMNSLRIEDTAVYYCARDLGPYGMDVWGQGTTVTVSS
VL: B5 VL with M4L, S10F, V11L, W32Y, S53T, D70Q, T72I, A91L, F94Y, L96G
B7: mAb10930 (antibody, V domains shown)
VH: EVQLVESGGGLVQPGRSLRLSCAASGFTFDDYAMYWVRQAPGKGLEWVSGISWNSGSIGYADSVKGRFTISRDNAKNSLYLQMNSLRAADTALYYCAKDKDWNSRGYYYYGMDVWGQGTTVTVSS
VL: not shown
B8: mAb10965 (antibody, V domains shown)
VH: EVQLVESGGGLIQPGGSLRLSCAASVFTVSYNYMSWVRQAPGKGLEWVSVIYSGGSTYYADSVKGRFTISRDNSKNTLYLQMNSLRAEDTAVYYCARALPGWGGSFEYFDYWGQGTLVTVSS
VL: not shown
B9: mAb10982 (antibody, V domains shown)
VH: EVQLVESGGGLVQPGGSLRLSCAASGLTVSSNYMSWVRQAPGKGLEWVSVIYSGGTTYYADSVKGRFTISRHNSKNTLSLQMNSLRAEDTAVYYCARGEGANYYGMDVWGQGTTVTVSS
VL: QSVLTQPPSVSGAPGQRVTISCTGSSSNIGTGYDVHWYQQLPGTAPKLLIYGNSNRPSGVPDRFSGSKSGTSASLAITGLQAEDEADYYCQSYDSSLSGYVVFGGGTKLTVLG
B10: mAb10985 (antibody, V domains shown)
VH: EVQLVESGGGLVQPGRSLRLSCAASGFTFDDYAMHWVRQAPGKGLEWVSGISWNRGSIGYADSVKGRFTISRDNAKNSLYLQMSSLRAEDTALYYCAKDGERWDSVVVPSARNGMDVWGQGTTVTVSS
VL: B9 VL with T31A, Y100S, V101Y, G105T, L109V
B11: mAb10986 (antibody, V domains shown)
VH: EVQLVESGGGLVQPGGSLRLSCAASEFTVSSNYMSWVRQAPGKGLEWVSVIYSGGSTFYADSVKGRFTISRDNSKNTLYLQMNSLRAEDTAVYYCARALPYGDLHFDYWGQGTLVTVSS
VL: B9 VL with S54T, G99D, Y100S, V101Y, G105T, L109V
B12: mAb10971 (antibody, V domains shown)
VH: B6 VH with V12I, A60S, T68S, F79Y, I87A, G100Y, P101Y
VL: DIQLTQSPSFLSASVGDRVTITCRASQGISTYLAWYQQKPGKAPKLLIYAASTLQSGVPSRFSGSGSGTEFTLTISSLQPEDFATYYCQQLDSYPGLTFGGGTKVEIKR
B13: mAb10934 (antibody, V domains shown)
VH: not shown
VL: DIQMTQSPSSLSASVGDRVTITCQASQDIWNYINWYQQKPGKAPKLLIYDASNLKTGVPSRFSGSGSGTDFTFTISSLQPEDIATYYCQQHDDLPPTFGQGTKVEIKR
B14: mAb10955 (antibody, V domains shown)
VH: EVQLVESGGGLVQPGGSLRVSCAASGFTVSRNYMSWVRQAPGKGLEWVSVIYSGGSTFYADSVKGRFTISRDNSKNTLYLQMNSLRAEDTAIYYCARYIPRFDPWGQGTLVTVSS
VL: B13 VL with W30S, I33L, Y36F, K42R, K55E, H91Y, D93N, P96I, K103R, V104L
B15: mAb10938 (antibody, V domains shown)
VH: EVQLVESGGGLVQPGGSLRLSCAVSGFTVSSNYMSWVRQAPGKGLEWVSLIYSGGSTFYADSVKGRFTISRHNSKNTLYLQMNSLRAEDTAVYYCAREGGYSYDYNYWGQGTLVTVSS
VL: B13 VL with W30R, I33L, K55E, S65I, H91Y, D93N, P96I, K103R, V104L
B16: mAb10935 (antibody, V domains shown)
VH: EVQLVESGGGLVQPGGSLRLSCAASGFTVSSNYMSWVRQAPGKGLEWVSLIYSGGSTYYADSVKGRFTISRHNSKNTLYLQMNSLRSEDTAVYYCARVPLGDYYYGMDVWGQGTTVTVSS
VL: B13 VL with W30N, N31K, I33L, K55E, H91S, D93N, P96L, Q100G
B17: mAb10954 (antibody, V domains shown)
VH: EVQLVESGGGLVQPGGSLRLSCAASGITVSSNYMSWVRQAPGKGLEWVSLIYSGGSTYYADSVKGRFTISRDNSKNTLYLQMNSLRVEDTAVYYCARDHGMAAAGYNYWGQGTLVTVSS
VL: B13 VL with W30N, N31K, I33L, K55E, S76N, I83F, Y87F, H91Y, D93N, T97A
B18: mAb10967 (antibody, V domains shown)
VH: EVQLVESGGGLVQPGGSLRLSCAASGFTVSSNYMSWVRQAPGKGLEWVSVIYPGGSTFYADSVKGRFTISRDNSKNTLYLQMNSLRAEDTAVYYCARDQRDFAWGQGTLVTVSS
VL: B13 VL with W30S, I33L, K55E, S77G, H91Y, D93N, K103R, V104L
B19: mAb10966 (antibody, V domains shown)
VH: EVQLVESGGGLVQPGGSLRLSCAASGLTVSSNYMSWVRQAPGKGLEWVSVIYSGGSTFYADSVKGRFTISRDNSKNTLYLQMNSLRPEDTAVYYCAREGRIAATGYGMDVWGQGTTVTVSS
VL: not shown
B20: mAb10939 (antibody, V domains shown)
VH: EVQLVESGGGLVQPGGSLRLSCAASGLTVSSNYMNWVRQVPGKGLEWVSVIYSGGSKFYVDSVKGRFTISRHNSKNTLYLQMNSLRPEDTAVYYCTRDAQYYGMDVWGQGTTVTVSS
VL: DIQMTQSPSSLSASVGDRVTITCRASQSISTYLHWYQQKPGEAPKLLIYAASSLQSGVPSRFSGSGSGTDFTLTISSLQPEDFATYYCQQSYSTPPEIFGQGTKLEIKR
B21: mAb10956 (antibody, V domains shown)
VH: B6 VH with V27L, F79Y, I87A, G100I, P101K
VL: not shown
B22: mAb10936 (antibody, V domains shown)
VH: QVQLVESGGGVVQPGRSLRLSCAASGFTFRNYGMHWVRQAPGKGLEWVSVIWYDGSNRYYADSVKGRFTISRDTSKNTLYLQMNSLRAEDTAVYYCARDPPITGTTGGDAFDIWGQGTMVTVSS
VL: not shown
B23: mAb10920 (antibody, V domains shown)
VH: QVQLVESGGGVVQPGRSLRLSCAASGFTFSYYGMHWVRQAPGKGLEWVAVIWYDGSNKFYADSVKGRFTISRDNSKNTLYLQMNSLRAEDTAVYYCAAARPGYYYGMDVWGQGTTVTVSS
VL: DIQMTQSPSSLSASVGDRVTITCRASQGISNYLAWFQQKPGKAPNSLIYAASSLQRGVPSKFSGSGSGTDFTLTISSLQPEDFATYYCQQYNSYPRTFGQGTKVEIKR
B24: mAb10937 (antibody, V domains shown)
VH: QITLKESGPTLVKPTQTLTLTCTFSGFSLSTNVVGVGWIRQPPGKALEWLALIYWNDDKRYSPSLKSRLTITKDTSKNQVVLTMTNMDPVDTATYYCAHGPTGDYFDYWGQGTLVTVSS
VL: not shown
B25: mAb10989 (antibody, V domains shown)
VH: QVQLVQSGAEVKKPGASVKVSCKASGYIFTGYYMHWVRQAPGQGLEWMGWINPNSGGANYAQKFQGRVTLTRDTSITTVYMELSRLRFDDTAVYYCARGSRYDWNQNNWFDPWGQGTLVTVSS
VL: QSALTQPASVSGSPGQSITISCTGTSSDVGTYNYVSWYQQHPGKAPKLMIFDVSNRPSGVSDRFSGSKSGNTASLTISGLQAEDEADYYCSSFTTSSTVVFGGGTKLTVLG
B26: mAb10915 (antibody, V domains shown)
VH: EVQLVESGGGLVQPGGSLRLSCAASGFTVSSNYMNWVRQAPGKGLEWVSVIYSGGSTFYADSVKGRFTISRHNSKNTLYLQMNSLRPEDTAVYYCARDLGGYFDYWGQGTLVTVSS
VL: not shown
B27: mAb10923 (antibody, V domains shown)
VH: QVQLVQSGAEVKKPGASVKVSCKASGYTFINYYIHWVRQAPGQGLEWMGWINPNSGGTNYAQKFQGRVTMTRDTSISTAYMELSRLRSDDTAVYYCAIITIFGVVTWFDPWGQGTLVTVSS
VL: not shown

Target: SARS-CoV-2 RBD-hFc (SARS-CoV-2)
Experiment: Luminex beads

Binder	binding result
B1	binds
B2	binds
B3	binds
B4	binds
B5	binds
B6	binds
B7	binds
B8	binds
B9	binds
B10	binds
B11	binds
B12	binds
B13	binds
B14	binds
B15	binds
B16	binds
B17	binds
B18	binds
B19	binds
B20	binds
B21	binds
B22	binds
B23	binds
B24	binds
B25	binds
B26	binds
B27	binds
